Assay results as given in US20210236614A1.
“And” between values parts separate entries of the source, which are not always exact repeats. Equal entries are not always repeated.

Assays:
Assay in all cases: ELISA, His-PD1 on nickel plate, conjugate only control
[1] = molecular target: His tagged mouse PD1 (Sino) (mouse) (UniProt Q02242)
[2] = molecular target: His tagged rat PD1 (Sino) (rat) (UniProt D3ZIN8)
[3] = molecular target: His tagged canine PD1 (Sino) (canine)
[4] = molecular target: His tagged rhesus monkey PD1 (Sino) (rhesus monkey) (UniProt B0LAJ2)
Sequence of His tagged rhesus monkey PD1 (Sino) (rhesus monkey) (B0LAJ2 entry or part of it limits assumed, form in doubt): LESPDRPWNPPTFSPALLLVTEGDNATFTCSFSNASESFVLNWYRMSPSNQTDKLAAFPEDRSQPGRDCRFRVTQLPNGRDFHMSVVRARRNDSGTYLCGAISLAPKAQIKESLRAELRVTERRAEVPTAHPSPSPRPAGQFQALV

Sequence of His tagged mouse PD1 (Sino) (mouse) (Q02242 25-167 limits assumed): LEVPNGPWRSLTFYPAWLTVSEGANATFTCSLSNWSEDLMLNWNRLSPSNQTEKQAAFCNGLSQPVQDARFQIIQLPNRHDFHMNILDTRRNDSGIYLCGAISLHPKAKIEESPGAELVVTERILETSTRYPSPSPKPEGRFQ
Sequence of His tagged rat PD1 (Sino) (rat) (D3ZIN8 entry or part of it limits assumed, form in doubt): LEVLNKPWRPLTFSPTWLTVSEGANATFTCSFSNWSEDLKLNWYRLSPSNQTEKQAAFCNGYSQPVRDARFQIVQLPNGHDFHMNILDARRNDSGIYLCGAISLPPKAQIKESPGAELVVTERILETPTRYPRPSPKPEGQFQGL

OD [1]: 0.066 OD and 0.064 OD | OD [2]: 0.055 OD | OD [3]: 0.059 OD and 0.06 OD | OD [4]: 0.063 OD and 0.058 OD
Substance: horseradish peroxidase-labeled anti-rabbit antibody (conjugate only control)
